{"source": "patent US20130036481A1", "target": "α2β1 integrin on human cortical neurons (human) (UniProt P17301)", "assay": "cell-based or functional assay", "data": [{"substance": "Human perlecan Domain V, recombinant, C-terminal 6xHis tag (from UniProt P98160 3687-4391) (ligand)", "values": [{"measurement": "EC50 of domain V inhibition of Aβ toxicity in human cortical neurons, domain V alone (FIG. 4)", "result": 123, "unit": "nM"}, {"measurement": "EC50 of domain V inhibition of Aβ toxicity in human cortical neurons, in the presence of a mouse IgG control or the α2 antibodies 1950 and 1998", "result": 98, "unit": "nM"}, {"measurement": "EC50 of domain V inhibition of Aβ toxicity in human cortical neurons, in the presence of the αV integrin antibody", "result": 47, "unit": "nM"}, {"measurement": "EC50 of domain V inhibition of Aβ toxicity in human cortical neurons, in the presence of the β1 integrin antibody", "result": "< 38", "unit": "nM"}, {"measurement": "average EC50 of domain V inhibition of Aβ40 toxicity in human cortical neurons (alamarBlue viability, n=5 experiments)", "result": 164, "unit": "nM"}]}, {"substance": "LG3 C-terminal domain of human perlecan Domain V (amino acids 4188-4391), C-terminal 6xHis tag (from UniProt P98160 4188-4391) (ligand)", "values": [{"measurement": "EC50 of LG3 inhibition of Aβ40 toxicity in human cortical neurons (alamarBlue viability)", "result": 50, "unit": "nM"}]}]}
